Biological target: T1, human CCR5 chemokine receptor (Homo sapiens, UniProt P51681)
T1 construct: host or cells: Chinese Hamster Ovary (CHO) cells; membranes prepared from the cell pellet
Assay: CC-Chemokine Receptor-5 Binding by Scintillation Proximity Assay (CCR5 SPA), displacement of 125I-MIP1α
Conditions: standard compound, 14-point concentration-response curve in triplicate, starting concentration 1 μM
Experimental: CC-Chemokine Receptor-5 Binding by Scintillation Proximity Assay (CCR5 SPA)
Scintillation Proximity Assay for the Human CC-Chemokine Receptor, CCR-5
This protocol describes a high-throughput screen using SPA binding to identify compounds that inhibit binding of ^125I-MIP1α to the human CCR5 chemokine receptor.
Human CCR5 receptors were expressed in Chinese Hamster Ovary (CHO) cells, registration # 12025. Cells were grown in suspension and a 50 to 80 ml CCR5 cell pellet was prepared. […]
The saturation curve binding experiment is performed by adding varying amounts of [^125I]MIP1α (0-8.5 nM to membranes and beads in concentrations chosen from the optimal protein/bead ratio. The data is analyzed using a non-linear curve-fitting program. The Kd and Bmax are derived from the curve. […]

T1 sequence (P51681 whole entry): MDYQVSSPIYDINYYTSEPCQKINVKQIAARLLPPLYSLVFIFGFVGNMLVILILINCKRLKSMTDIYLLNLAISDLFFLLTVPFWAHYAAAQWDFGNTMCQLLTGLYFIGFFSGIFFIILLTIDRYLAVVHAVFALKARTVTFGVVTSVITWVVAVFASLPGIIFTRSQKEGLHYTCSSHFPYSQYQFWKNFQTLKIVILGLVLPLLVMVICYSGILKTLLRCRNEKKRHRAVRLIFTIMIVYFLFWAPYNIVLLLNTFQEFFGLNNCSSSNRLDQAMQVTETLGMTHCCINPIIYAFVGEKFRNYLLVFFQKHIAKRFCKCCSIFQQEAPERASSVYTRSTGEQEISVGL

average historical pKi: 7.6
Substance: MIP1α: natural chemokine ligand of CCR5, used as standard compound in the SPA binding assay
